# Assay: soluble on expression in E. coli; label from the status in PepcDB or PDB records
row,Sequence,soluble on expression in E. coli
1,MSGNYVINIGRQLGSGGKEIGEKLAARLGIDFYDKELINLASEESGLCKEFFEKADEKASQGIIGGLFGMRFPFISEGAMPCTNCLSNDALFKVQSDVIRRLAAEKSCVFVGRCADYILREHPRCANVFISATKEDRIARLCQMHRIDEEAAEEMIEKADKRRSEYYNYYSYKTWGAAATYHLCVDSSSLGIEETVRFVEEFVAKKLQIGM,not soluble
2,MSGPTDTSTQPQGFSMTRLRLIGSAVLLSLSSMAMADSASQAEQFLKLVHADKLTVPVYAQVQQMLAQRFAQAKAPESKKAVLERYQAKANAELDRAIGWDKIKPELIKLYTTNFTESELKDLNAFYQSPLGKKVLEKMPRLTAESAQLTQAKLQGAVEPVNKLMADMDKELGVAAPAQKKK,not soluble
3,MSGRVGDLSPRQKEALAKFRENVQDVLPALPNPDDYFLLRWLRARSFDLQKSEAMLRKHVEFRKQKDIDNIISWQPPEVIQQYLSGGMCGYDLDGCPVWYDIIGPLDAKGLLFSASKQDLLRTKMRECELLLQECAHQTTKLGRKVETITIIYDCEGLGLKHLWKPAVEAYGEFLCMFEENYPETLKRLFVVKAPKLFPVAYNLIKPFLSEDTRKKIMVLGANWKEVLLKHISPDQVPVEYGGTMTDPDGNPKCKSKINYGGDIPRKYYVRDQVKQQYEHSVQISRGSSHQVEYEILFPGCVLRWQFMSDGADVGFGIFLKTKMGERQRAGEMTEVLPNQRYNSHLVPEDGTLTCSDPGIYVLRFDNTYSFIHAKKVNFTVEVLLPDKASEEKMKQLGAGTPK,soluble
4,MSGTEEAILGGRDSHPAAGGGSVLCFGQCQYTAEEYQAIQKALRQRLGPEYISSRMAGGGQKVCYIEGHRVINLANEMFGYNGWAHSITQQNVDFVDLNNGKFYVGVCAFVRVQLKDGSYHEDVGYGVSEGLKSKALSLEKARKEAVTDGLKRALRSFGNALGNCILDKDYLRSLNKLPRQLPLEVDLTKAKRQDLEPSVEEARYNSCRPNM,soluble
5,MSHAHKKHKENAPKSLNFYVITISTSRYEKLLKKEPIVDESGDIIKQLLIENGHKIIGYSLVPDDKIKILKAFTDALSIDEVDVIISTGGTGYSPTDITVETIRKLFDREIEGFSDVFRLVSFNDPEVKAAAYLTKASAGIIGKKIVYLLPGSPDAVKLALKELILPEVGHLVYLVRS,soluble
6,MSHLNYETRLPLGQATIDHFMGLPAHPTKCQATYVWIDGTGEHLRAKTRTINTKPQYLSEYPIWNYDGSSTGQADGLNSDRYLRPVAVFPDPFLGGLNVLVMCDTLDHEMKPTATNHRQMCAELMKKVSDQQPWFGMEQEYLIVDRDEHPLGWPKHGYPAPQGKYYCGIGADRAFGREVVETHYRACLHAGITIFGSNAEVTPGQWEFQIGTCLGIEMGDQLWMARYILHRVAEQFGVCVSLDPKPRVTMGDWNGAGCHTNFSTIDMRRPDGLETIIAAMEGLKKTHSEAMKVYDPNGGHDNLRRLTGRHETSQADQFSWGIANRACSVRIPRQVADEGRGYLEDRRPSSNCDPYLVTAMIVKSVLIN,not soluble
7,MSHLVYVSRVVAAPIERVWPHLRDFNGLSAWHPGVADSRLEEGGRDDAPGTVRFLSLNPSGYVRERLLMLDDAGRSLRYAIIETDLPMRDYVAGVDLCPVTEGGGTFAQWWADFDVVAGANRDEVARLVGEGVFAAGLQALDQYLRDRQG,soluble
8,MSHPVVSKEEWLAARRDLLVKEKELTRARDRLNEARRALPWEEVTKDYIFDAPSGPRSLQELFGDCSQLIVYHFMLAPDWEEGCVGCSFFADHVDGALVHLRHGDAGFVAVSRAPLEKIEGYKNRMGWKFPWVSAEGSDFNYDYQASFRDEDVEKGEITYNYRDMAPFGDLKDLHGISVFAKGEDGKIYHTYSTYARGAEQTLGTLMLLDLVPKGRNEDEVMDWVRRHDQYEDAPKAASCCH,not soluble
9,MSHYLSPGAYLPHDAPMLLLEDVVSVSDDSAVCRVTVSPSGVLAPFLDPDGNLPGWFTLELMAQTVGVWSGWHRHQQGKNSIELGMILGARELLCTTGILPAGQTLTITVKLLMQDDRFGSFECSINDGEATGRINTFQPTAEELTTLFQQGAS,not soluble
10,MSIALLAAATSSMAQSLDKMNWLNEPQQWEIKEGKALVMDVPAKTDFWRISHYGFTVDDGPFYYATYGGEFEVKVKITGNYVTTFDQMGLMLRIDHENWIKAGVEYVDGKQNVSAVVTHRTSDWSVVQLPDAPRSLWIKAVRRLDAVEIFFSRDDKEYTMIRTCWLQDNCPVMVGLMGACPDGKGFTATFEEFKVTPLADQRRLEWAKKQADKLEHHHHHH,not soluble
11,MSIESIRNVIAKDMGEVDNVIQQKLHSQVALVRQVSEYIIHSGGKRLRPALVILAAGLFDYKGLHHHNLAAVVEFIHTATLLHDDVVDESELRRNQATANALFGNAASVLVGDFLYSRAFQMMVEVGNMRVMEVLADATNTIAEGEVLQLLNCRDPDVEEENYLQVIRFKTAKLFEAAARLGAILGGATPAEEEALAAYGMHLGTAFQLVDDLLDYSGNDQDTGKNLGDDLAEGKPTLPLIFAMRSGIPEQVDTVRHAIETGGKDGFEPILKIIQESGALDYAKQCAQNEANMAISAITAIRDSIYKQCLLELAEFAITRNY,not soluble
12,MSIFQSFKSVAAAIAVCAGIFTGFSANAQSVDDIVKRGSVKIGVLVGAPPFGSVDAQGNPVGYDADVATLIGKYLGVPVTMVQLTPPSRIPALESGKVDFLVATLAPTPERAKAVMFTNPYSAFQVGIYSHKDTKIEKWEDLKGMTVGVNRGSSVEREFVNREKELGLTILRFDDDATTMQALFSGQVQAIAGPDAQANAAIKLRGDTTTEVKFFFSIQPNSMTVRKDAVDLHQWLNNTIYYIKQNGELDAIARKWVGTPLPVLPTF,not soluble
13,MSIGVVLAKITAEFPDVTVSKIRYLESEGLITPQRTSTGYRRFTQDDVERLRYILVTQRDNYLPLKVIREQLEAMDSGAVTPISRGSDNAPLISPESFRTSVVTRLSDSDVAARAQVSESEVSELAEAGLIRPDSSGFFTADDVQVVSVAVQLKEFGFDVRHLKSLRNLASRHADLISRATTPVARSQSESARQRAEEMSQQLSALVVSLNATMLRSMLRDELNR,not soluble
14,MSIINDENGRGYKVHLCKTNIAQNNNKFYDMELLDEGGDFIVKLINGRIGYRGVTQLKDFDDLDRAKKFFESKFYEKTHLHWEERDDEPVPNKYAVVELATNARQTEKEVKKEEPEPEPKVDEKNTRGRKKRGIVKEKKEIKKEEEPVEEVNEKLKELMKCICDEDVHLGLLKQLKFNEAFGRPIDCLSLAQLTTGYEILSKIEESIGGKSARRSTRGRPRVADRVLAVKSDGPSLHDINKYYSLIPHSFGFCVPPKIDSHAKIQAERELLDALKGSIEASLELKDLKKTASSKDIYQRLYERLPCHLEPVSEEIAGKIGDCLAMRGPTHCYKLSLIDAFELKDPNEIPTEAPVEVQEVPKKRGRKSTKTAAPTVPPPTTKRLLWHGTRVTNVFSILMNGLQFPVGDRCGLMFGNGVYFANVPTKSANYCCPEASKRVFMLLCEVETANPLVLYESEIDADEKMEKAKKTSVYAAGKHTPRDTVEINGIPAFKSNLETIEEETRLLYDEYVMFNKEHFKIKYVVEVKVDRLTAKEMMA,not soluble
15,MSILHTVNKSPFERNSLESCLKFATEGASVLLFEDGIYAALAGTRVESQVTEALGKLKLYVLGPDLKARGFSDERVIPGISVVDYAGFVDLTTECDTVQAWL,soluble
16,MSILKNAGEPVISMRYIPYNGGAVKETWWDRDSDRKRLLISLGTVKPMVDGLELISWVMDSANEVDADIILQLAINARTGLRKLPSNVRLVDWIPMGVFLNGADGFIHHGGAGNTLTALYSGIPQIVFGEGADRSVNAEIVAKRGCGIIPDKHGLTSDLVNRLLYDDSLRFCSDQVAAEMAEQPSPAEIAEVLMRKLKNNGKQL,not soluble
17,MSINNTQNNCRFCSEISQANGEDPIGTAIAVEQYLIIEAAQPWPIPIWIEPDPMPQGVIEALNFIWEGGGTVRQLAIAPDKEYSHPGYTRVIYYRRPAKFFAQFEKQEFIVPHALLGSLALALLKNPEELPNFNQYRQQTNHIREILVCNHGNVDAACSRFGYPIYQKLRSEYAAATNSNLRFWRCSHFGGHEFAPTLVDLPQGQYWGHLKPEILDLLVLRNGSVKELYPYYRGWGGLSFFEQIAEREIWMLEGWKWLEYHKAGQVLASDEINQEWADVRIDFTTVDGNISSAYQARVEVKGSVMTAWKSGANPTLEEVKQYRVRNLVKLAL,not soluble
18,MSIRRSDPLAQVSDFDIRLLRIFKSVVEAGGFSAAESALGIGRSAISQQMSDLEQRLGLRLCQRGRAGFSLTDEGREVYQSSLQLLSALESFRTEVNGLHQNLRGELNIGLTDNLVTLPHMRITHALSRLKERGPGVHINIRMIAPAEVEQGVLDGGLHVGVVPQASALPGLEYHSLYSERSLLYCAVGHPLFYAENTMLDDQRLALQEAVAPTFRLPNDIQEHYKALTCTASASDREGIAFLILTGRYIGYLPDHYANAWVQEGRLRALKPDAKFYDLNLVTVTRKGRRPHLVLEGFLEALAATR,not soluble
19,MSISIMTETRPESAEQQHHEVLQRPSDEPCSGCKQLQKDVAKTISMVMERMDKLQYRLDELLKENNELKSSSVSSGKASPSPAESRSSPKLVETVVAPVSGARKRKPKERSPPAAASPLPDFSNLMNGFMFDPLNMSNPNGMMQLLSMVQQQQQQQQHHQHIENQQSVSPPQSKSVKIEDPMDQDVKQEESERSDIPTATEAQNLLDALTAQFSSNGQATSTTSPPSSSSQVQAVIEAVATPSSQSQDSSMFEKTETSGDPNAARCSNCRTDKTTAWRRDAEGKLVCNPCGLYYRLHKVRRPIEMRKNHIQQRYRRKNKEKESSAATQIFNQLLTQMPTMATGGVSTDGAINTFNLLEQISQFTQAQELMNSSATF,not soluble
20,MSITIFNRDLKEIYYEKQYKNGQLKFLYNTILGRMLLKLFISTRLFSKINAIFNNNKGSIKKIEPFINEYKIDMSEYEKKEYTSFDDFFTRKILEGKRSFSKEKSHLISPADSKLMVYEIDDDLKMNIKNSIYTVGELLNDEKLSREYKNGTCLIFRLTVDDYHRYCFIDDGSLKYRKVINGRLHTVGPISSKRYKVYSENNREYSVLKTRNFGKVIQIEVGALLVGKIKNHSIKVFKKGDEKGYFCFGGSTIVLLFKEKVIKMDEDILEYSKAGIETKIKMGEKIGETNDLEHHHHHH,soluble
21,MSIVAKSYEESADPVVAYCAEHTAVQTPLQAELQKETLTNAPHSGMLGAPEVLTFGENFIKFLGAKRVLDVGTFTGASALAWALAVPDDGEVFTFDIDHANYRKFGVPILSKCEKTFKKIKPVEGPGVESLDKLIADGQSGTFDFAFIDADKANYSNYYEKCVSLLRKGGVIFVDNSLWDGAVCDPAKRTDPRTAAIHEMNDKIYQDDRTYSALLNLGDGIHMAFKK,not soluble
22,MSIVTVQLGQCGNQIGFEVFDALFRDSHCSQGLCSKRDNEAYQASCRERFFREEENGVPVARAVLVDMEPKVINQTLSKAAQSGRWNYGQHTSFCQKQGSGNNWAYGYSVHGPKHEESIMNLIQTEVEKCDSLSGFFIIMSMAGGTGSGLGAFVTQKLQDQYSSSLKMNQIIWPYGTGEVIVQNYNSILTLSHLYRSSDALLIHENDAVHKICAKRMNIKQISFRDLNQVLAHQLGSVFQPTYSEDSSFHYRRNPLGDLMEHLVPHPEFKMLGVRNIPQMSAASLAYSAFTWAGLLKHLRQMLISSAKMEEGINWQVRPPLTGLPPIGKASAHKEHHFNTSLANLVVLRGREVHSADVEGFKDPALYTSWLEPVDAFSVWKTQRAFDKYEKSAALVSNSQLLVKPLDMIVGKAWNMFSSKAFIHQYTKFGMEEEDFLDSFALLEQVVASYGSLGP,not soluble

# — the DeepSol protein solubility set
